Experimental data reported in the RNAGym collection of RNA variant scans (doi:10.1021/acssynbio.7b00057).

B1: Pistol ribozyme (parent)
chain: GGGUCGUUGUUCCAUAAUCGCGUGGAUAUGGCACGCAAGUUUCUACCGGGCACCGUAAAUGUCCGACUGGAGCCGUUCGGGCGGCUAUAAACAGACCUCAGGCCCGAAGCGUGGCGGCACCUGCCGCCGGUGGUAAAAAAGAUCGGAAGAGCACACGUCU

Variants of: B1
Assay: aptazyme ON/OFF ratio, guanine; higher = stronger switching; co-transcriptional cleavage with and without guanine

In order of rising “aptazyme ON/OFF ratio” value:
1. GGGUCGGACGAAGAUAAUCGCGUGGAUAUGGCACGCAAGUUUCUACCGGGCACCGUAAAUGUCCGACUGGAGCCGUUCGGGCGGCUAUAAACAGACCUCAGGCCCGAAGCGUGGCGGCACCUGCCGCCGGUGGUAAAAAAGAUCGGAAGAGCACACGUCU  0.999
2. GGGUCGGACGAACAUAAUCGCGUGGAUAUGGCACGCAAGUUUCUACCGGGCACCGUAAAUGUCCGACUGGAGCCGUUCGGGCGGCUAUAAACAGACCUCAGGCCCGAAGCGUGGCGGCACCUGCCGCCGGUGGUAAAAAAGAUCGGAAGAGCACACGUCU  1
3. GGGUCGGACGAGAAUAAUCGCGUGGAUAUGGCACGCAAGUUUCUACCGGGCACCGUAAAUGUCCGACUGGAGCCGUUCGGGCGGCUAUAAACAGACCUCAGGCCCGAAGCGUGGCGGCACCUGCCGCCGGUGGUAAAAAAGAUCGGAAGAGCACACGUCU  1.01
4. GGGUCGGACGUACAUAAUCGCGUGGAUAUGGCACGCAAGUUUCUACCGGGCACCGUAAAUGUCCGACUGGAGCCGUUCGGGCGGCUAUAAACAGACCUCAGGCCCGAAGCGUGGCGGCACCUGCCGCCGGUGGUAAAAAAGAUCGGAAGAGCACACGUCU  1.02
5. GGGUCGGACGAUCAUAAUCGCGUGGAUAUGGCACGCAAGUUUCUACCGGGCACCGUAAAUGUCCGACUGGAGCCGUUCGGGCGGCUAUAAACAGACCUCAGGCCCGAAGCGUGGCGGCACCUGCCGCCGGUGGUAAAAAAGAUCGGAAGAGCACACGUCU  1.02
6. GGGUCGGACGAUUAUAAUCGCGUGGAUAUGGCACGCAAGUUUCUACCGGGCACCGUAAAUGUCCGACUGGAGCCGUUCGGGCGGCUAUAAACAGACCUCAGGCCCGAAGCGUGGCGGCACCUGCCGCCGGUGGUAAAAAAGAUCGGAAGAGCACACGUCU  1.03
7. GGGUCGGACGAUAAUAAUCGCGUGGAUAUGGCACGCAAGUUUCUACCGGGCACCGUAAAUGUCCGACUGGAGCCGUUCGGGCGGCUAUAAACAGACCUCAGGCCCGAAGCGUGGCGGCACCUGCCGCCGGUGGUAAAAAAGAUCGGAAGAGCACACGUCU  1.03
8. GGGUCGGACGUAGAUAAUCGCGUGGAUAUGGCACGCAAGUUUCUACCGGGCACCGUAAAUGUCCGACUGGAGCCGUUCGGGCGGCUAUAAACAGACCUCAGGCCCGAAGCGUGGCGGCACCUGCCGCCGGUGGUAAAAAAGAUCGGAAGAGCACACGUCU  1.03
9. GGGUCGGACGAAUAUAAUCGCGUGGAUAUGGCACGCAAGUUUCUACCGGGCACCGUAAAUGUCCGACUGGAGCCGUUCGGGCGGCUAUAAACAGACCUCAGGCCCGAAGCGUGGCGGCACCUGCCGCCGGUGGUAAAAAAGAUCGGAAGAGCACACGUCU  1.03
10. GGGUCGGACGUUCAUAAUCGCGUGGAUAUGGCACGCAAGUUUCUACCGGGCACCGUAAAUGUCCGACUGGAGCCGUUCGGGCGGCUAUAAACAGACCUCAGGCCCGAAGCGUGGCGGCACCUGCCGCCGGUGGUAAAAAAGAUCGGAAGAGCACACGUCU  1.03
11. GGGUCGGACGUUGAUAAUCGCGUGGAUAUGGCACGCAAGUUUCUACCGGGCACCGUAAAUGUCCGACUGGAGCCGUUCGGGCGGCUAUAAACAGACCUCAGGCCCGAAGCGUGGCGGCACCUGCCGCCGGUGGUAAAAAAGAUCGGAAGAGCACACGUCU  1.03
12. GGGUCGGACCGCUAUAAUCGCGUGGAUAUGGCACGCAAGUUUCUACCGGGCACCGUAAAUGUCCGACUGGAGCCGUUCGGGCGGCUAUAAACAGACCUCAGGCCCGAAGCGUGGCGGCACCUGCCGCCGGUGGUAAAAAAGAUCGGAAGAGCACACGUCU  1.03
13. GGGUCGGACCGCGAUAAUCGCGUGGAUAUGGCACGCAAGUUUCUACCGGGCACCGUAAAUGUCCGACUGGAGCCGUUCGGGCGGCUAUAAACAGACCUCAGGCCCGAAGCGUGGCGGCACCUGCCGCCGGUGGUAAAAAAGAUCGGAAGAGCACACGUCU  1.03
14. GGGUCGGACCGUGAUAAUCGCGUGGAUAUGGCACGCAAGUUUCUACCGGGCACCGUAAAUGUCCGACUGGAGCCGUUCGGGCGGCUAUAAACAGACCUCAGGCCCGAAGCGUGGCGGCACCUGCCGCCGGUGGUAAAAAAGAUCGGAAGAGCACACGUCU  1.03
15. GGGUCGGACGACCAUAAUCGCGUGGAUAUGGCACGCAAGUUUCUACCGGGCACCGUAAAUGUCCGACUGGAGCCGUUCGGGCGGCUAUAAACAGACCUCAGGCCCGAAGCGUGGCGGCACCUGCCGCCGGUGGUAAAAAAGAUCGGAAGAGCACACGUCU  1.04
16. GGGUCGGACGAAAAUAAUCGCGUGGAUAUGGCACGCAAGUUUCUACCGGGCACCGUAAAUGUCCGACUGGAGCCGUUCGGGCGGCUAUAAACAGACCUCAGGCCCGAAGCGUGGCGGCACCUGCCGCCGGUGGUAAAAAAGAUCGGAAGAGCACACGUCU  1.04
17. GGGUCGGACGAGGAUAAUCGCGUGGAUAUGGCACGCAAGUUUCUACCGGGCACCGUAAAUGUCCGACUGGAGCCGUUCGGGCGGCUAUAAACAGACCUCAGGCCCGAAGCGUGGCGGCACCUGCCGCCGGUGGUAAAAAAGAUCGGAAGAGCACACGUCU  1.04
18. GGGUCGGACCGCAAUAAUCGCGUGGAUAUGGCACGCAAGUUUCUACCGGGCACCGUAAAUGUCCGACUGGAGCCGUUCGGGCGGCUAUAAACAGACCUCAGGCCCGAAGCGUGGCGGCACCUGCCGCCGGUGGUAAAAAAGAUCGGAAGAGCACACGUCU  1.04
19. GGGUCGGACCGUUAUAAUCGCGUGGAUAUGGCACGCAAGUUUCUACCGGGCACCGUAAAUGUCCGACUGGAGCCGUUCGGGCGGCUAUAAACAGACCUCAGGCCCGAAGCGUGGCGGCACCUGCCGCCGGUGGUAAAAAAGAUCGGAAGAGCACACGUCU  1.04
20. GGGUCGGACGACAAUAAUCGCGUGGAUAUGGCACGCAAGUUUCUACCGGGCACCGUAAAUGUCCGACUGGAGCCGUUCGGGCGGCUAUAAACAGACCUCAGGCCCGAAGCGUGGCGGCACCUGCCGCCGGUGGUAAAAAAGAUCGGAAGAGCACACGUCU  1.05
21. GGGUCGGACGUAUAUAAUCGCGUGGAUAUGGCACGCAAGUUUCUACCGGGCACCGUAAAUGUCCGACUGGAGCCGUUCGGGCGGCUAUAAACAGACCUCAGGCCCGAAGCGUGGCGGCACCUGCCGCCGGUGGUAAAAAAGAUCGGAAGAGCACACGUCU  1.05
22. GGGUCGGACCGUAAUAAUCGCGUGGAUAUGGCACGCAAGUUUCUACCGGGCACCGUAAAUGUCCGACUGGAGCCGUUCGGGCGGCUAUAAACAGACCUCAGGCCCGAAGCGUGGCGGCACCUGCCGCCGGUGGUAAAAAAGAUCGGAAGAGCACACGUCU  1.05
23. GGGUCGGACGAUGAUAAUCGCGUGGAUAUGGCACGCAAGUUUCUACCGGGCACCGUAAAUGUCCGACUGGAGCCGUUCGGGCGGCUAUAAACAGACCUCAGGCCCGAAGCGUGGCGGCACCUGCCGCCGGUGGUAAAAAAGAUCGGAAGAGCACACGUCU  1.06
24. GGGUCGGACGUAAAUAAUCGCGUGGAUAUGGCACGCAAGUUUCUACCGGGCACCGUAAAUGUCCGACUGGAGCCGUUCGGGCGGCUAUAAACAGACCUCAGGCCCGAAGCGUGGCGGCACCUGCCGCCGGUGGUAAAAAAGAUCGGAAGAGCACACGUCU  1.06
25. GGGUCGGACGUGCAUAAUCGCGUGGAUAUGGCACGCAAGUUUCUACCGGGCACCGUAAAUGUCCGACUGGAGCCGUUCGGGCGGCUAUAAACAGACCUCAGGCCCGAAGCGUGGCGGCACCUGCCGCCGGUGGUAAAAAAGAUCGGAAGAGCACACGUCU  1.06
26. GGGUCGGACGUGAAUAAUCGCGUGGAUAUGGCACGCAAGUUUCUACCGGGCACCGUAAAUGUCCGACUGGAGCCGUUCGGGCGGCUAUAAACAGACCUCAGGCCCGAAGCGUGGCGGCACCUGCCGCCGGUGGUAAAAAAGAUCGGAAGAGCACACGUCU  1.06
27. GGGUCGGACGUUUAUAAUCGCGUGGAUAUGGCACGCAAGUUUCUACCGGGCACCGUAAAUGUCCGACUGGAGCCGUUCGGGCGGCUAUAAACAGACCUCAGGCCCGAAGCGUGGCGGCACCUGCCGCCGGUGGUAAAAAAGAUCGGAAGAGCACACGUCU  1.06
28. GGGUCGGACGUUAAUAAUCGCGUGGAUAUGGCACGCAAGUUUCUACCGGGCACCGUAAAUGUCCGACUGGAGCCGUUCGGGCGGCUAUAAACAGACCUCAGGCCCGAAGCGUGGCGGCACCUGCCGCCGGUGGUAAAAAAGAUCGGAAGAGCACACGUCU  1.06
29. GGGUCGGACGAGCAUAAUCGCGUGGAUAUGGCACGCAAGUUUCUACCGGGCACCGUAAAUGUCCGACUGGAGCCGUUCGGGCGGCUAUAAACAGACCUCAGGCCCGAAGCGUGGCGGCACCUGCCGCCGGUGGUAAAAAAGAUCGGAAGAGCACACGUCU  1.06
30. GGGUCGGACGAGUAUAAUCGCGUGGAUAUGGCACGCAAGUUUCUACCGGGCACCGUAAAUGUCCGACUGGAGCCGUUCGGGCGGCUAUAAACAGACCUCAGGCCCGAAGCGUGGCGGCACCUGCCGCCGGUGGUAAAAAAGAUCGGAAGAGCACACGUCU  1.07
31. GGGUCGGACGUGGAUAAUCGCGUGGAUAUGGCACGCAAGUUUCUACCGGGCACCGUAAAUGUCCGACUGGAGCCGUUCGGGCGGCUAUAAACAGACCUCAGGCCCGAAGCGUGGCGGCACCUGCCGCCGGUGGUAAAAAAGAUCGGAAGAGCACACGUCU  1.08
32. GGGUCGGACGUCGAUAAUCGCGUGGAUAUGGCACGCAAGUUUCUACCGGGCACCGUAAAUGUCCGACUGGAGCCGUUCGGGCGGCUAUAAACAGACCUCAGGCCCGAAGCGUGGCGGCACCUGCCGCCGGUGGUAAAAAAGAUCGGAAGAGCACACGUCU  1.09
33. GGGUCGGACGUCUAUAAUCGCGUGGAUAUGGCACGCAAGUUUCUACCGGGCACCGUAAAUGUCCGACUGGAGCCGUUCGGGCGGCUAUAAACAGACCUCAGGCCCGAAGCGUGGCGGCACCUGCCGCCGGUGGUAAAAAAGAUCGGAAGAGCACACGUCU  1.1
34. GGGUCGGACGUCCAUAAUCGCGUGGAUAUGGCACGCAAGUUUCUACCGGGCACCGUAAAUGUCCGACUGGAGCCGUUCGGGCGGCUAUAAACAGACCUCAGGCCCGAAGCGUGGCGGCACCUGCCGCCGGUGGUAAAAAAGAUCGGAAGAGCACACGUCU  1.1
35. GGGUCGGACGUCAAUAAUCGCGUGGAUAUGGCACGCAAGUUUCUACCGGGCACCGUAAAUGUCCGACUGGAGCCGUUCGGGCGGCUAUAAACAGACCUCAGGCCCGAAGCGUGGCGGCACCUGCCGCCGGUGGUAAAAAAGAUCGGAAGAGCACACGUCU  1.11
36. GGGUCGGACGUGUAUAAUCGCGUGGAUAUGGCACGCAAGUUUCUACCGGGCACCGUAAAUGUCCGACUGGAGCCGUUCGGGCGGCUAUAAACAGACCUCAGGCCCGAAGCGUGGCGGCACCUGCCGCCGGUGGUAAAAAAGAUCGGAAGAGCACACGUCU  1.18
